Results published in publication doi:10.64898/2025.12.10.693482, “Mechanism of NanR transcriptional activation of sialic acid metabolism in Streptococcus pneumoniae” (bioRxiv, 2025).
Values joined by “and” are separate entries in the source; they are usually repeats but may differ in a detail not shown here. Equal values may be shown once.

Key:
SpNanR D160A (NanR) = molecular target: T1, SpNanR D160A (NanR) (Streptococcus pneumoniae, UniProt A0A4M6CQT5, D160A); assay: DSF thermal shift (comparable to wild type) and tetramer stabilization by sedimentation velocity; assay type: binding
T1 construct: gene ybbH; recombinant SpNanR variant
T1 sequence (A0A4M6CQT5 whole entry D160A): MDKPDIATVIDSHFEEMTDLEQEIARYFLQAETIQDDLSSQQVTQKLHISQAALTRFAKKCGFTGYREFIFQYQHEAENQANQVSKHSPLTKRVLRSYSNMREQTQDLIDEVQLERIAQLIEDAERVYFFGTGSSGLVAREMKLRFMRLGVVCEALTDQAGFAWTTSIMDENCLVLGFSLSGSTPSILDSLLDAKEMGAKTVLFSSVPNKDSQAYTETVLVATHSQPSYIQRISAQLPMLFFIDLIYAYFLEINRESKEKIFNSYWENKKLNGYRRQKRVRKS

SpNanR (NanR) = molecular target: T2, SpNanR (NanR) (Streptococcus pneumoniae, UniProt A0A4M6CQT5); assay: ITC (n = […]), DSF, crystal structures (8TX9, 8V4V), sedimentation velocity; assay type: binding
T2 construct: gene ybbH; recombinant, full-length SpNanR
T2 sequence (A0A4M6CQT5 entry or part of it): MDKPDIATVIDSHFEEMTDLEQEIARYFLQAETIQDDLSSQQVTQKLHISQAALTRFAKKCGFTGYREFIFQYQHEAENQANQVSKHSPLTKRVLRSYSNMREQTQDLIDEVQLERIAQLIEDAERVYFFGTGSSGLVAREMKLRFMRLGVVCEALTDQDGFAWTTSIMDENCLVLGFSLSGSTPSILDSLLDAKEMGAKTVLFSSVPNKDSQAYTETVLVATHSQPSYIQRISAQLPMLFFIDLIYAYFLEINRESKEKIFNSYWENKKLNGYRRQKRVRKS

[1] = molecular target: the molecule itself; assay: AUC; sedimentation velocity, SpNanR 0.27–153.5 μM, with 2 mM N-acetylmannosamine-6-phosphate, 20 mM Tris-HCl pH 8.0, 300 mM NaCl, 20 °C; tetramer to dimers
[2] = molecular target: the molecule itself; assay: AUC; sedimentation velocity, SpNanR 4.3–227.7 μM, no N-acetylmannosamine-6-phosphate, 20 mM Tris-HCl pH 8.0, 300 mM NaCl, 20 °C; weight-averaged s fitted to a dimer-tetramer self-association model (Sedphat); tetramer to dimers
[3] = molecular target: the molecule itself; assay: SEC-SAXS; small-angle X-ray scattering with in-line size exclusion chromatography, SpNanR without N-acetylmannosamine-6-phosphate
[4] = molecular target: the molecule itself; assay: AUC; sedimentation velocity of SpNanR variants and wild type at the same concentration, without N-acetylmannosamine-6-phosphate (Supplementary Figure 14C–E)
SpNanR R56A = SpNanR R56A (Streptococcus pneumoniae, UniProt A0A4M6CQT5 1-283, R56A); assay: MST; up to 5 uM protein; MST: 20 mM Tris-HCl pH 8.0, 300 mM NaCl, 0.05% Tween-20, 20 C, 20 nM FAM-DNA, overnight incubation; AUC: 50 nM FAM-DNA, 0.019-5 uM SpNanR, buffer not given in m; conditions: protein: recombinant; chain copies: 2; label: 5'-6-FAM on sense strand; blunt 18 bp
SpNanR T18A = SpNanR T18A (Streptococcus pneumoniae, UniProt A0A4M6CQT5 1-283, T18A); assay: as above; conditions: protein: recombinant; chain copies: 2; label: 5'-6-FAM on sense strand; blunt 18 bp
SpNanR R67A = SpNanR R67A (Streptococcus pneumoniae, UniProt A0A4M6CQT5 1-283, R67A); assay: as above; conditions: protein: recombinant; chain copies: 2; label: 5'-6-FAM on sense strand; blunt 18 bp

Molecule: CC(=O)N[C@@H]1C(O)O[C@H](COP(=O)(O)O)[C@@H](O)[C@@H]1O (stereo partly shown) [manNAc-6-P, N-acetylmannosamine-6-phosphate]
- DSF thermal shift (comparable to wild type) and tetramer stabilization by sedime (SpNanR D160A (NanR)): it still binds N-acetylmannosamine-6-phosphate and that this sufficiently stabilizes the tetrameric form
- Kd (SpNanR (NanR)): 20.4 ± 6 µM

B1: Streptococcus pneumoniae NanR (SpNanR), wild type (natural protein, UniProt A0ACD7PT65 1-283, looked up)
chain: MDKPDIATIIDSHFEEMTDLEQEIARYFLQAETITDDLSSQQVTQKLHISQAALTRFAKKCGFTGYREFIFQYQHQAENQANQVSKHSPLTKRVLRSYSNMREQTQDLIDEIQLERIAQLIEDAERIYFFGTGSSGLVAREMKLRFMRLGVVCEALTDQDGFAWTTSIMDENCLVLGFSLSGSTPSILDSLLDAKEMGAKTVLFTSVPNKNSQTYTETVLVATHSQPSYIQRISAQLPMLFFIDLIYAYFLEINRESKEKIFNSYWENKKLNGYRRQKRVRKS
notes: NanR, RpiR family transcriptional regulator of Streptococcus pneumoniae; recombinant full-length protein; intact mass 32,611 Da; Cloned into pET30ΔSE; Exists in a dimer-tetramer equilibrium; also called SpNanR^WT
- Kd [1]: < 0.2 µM
- Kd [2]: 97 µM
- stoichiometry N [3]: 4 and 2

B2: SpNanR^D160A (natural protein)
chain: MDKPDIATIIDSHFEEMTDLEQEIARYFLQAETITDDLSSQQVTQKLHISQAALTRFAKKCGFTGYREFIFQYQHQAENQANQVSKHSPLTKRVLRSYSNMREQTQDLIDEIQLERIAQLIEDAERIYFFGTGSSGLVAREMKLRFMRLGVVCEALTDQAGFAWTTSIMDENCLVLGFSLSGSTPSILDSLLDAKEMGAKTVLFTSVPNKNSQTYTETVLVATHSQPSYIQRISAQLPMLFFIDLIYAYFLEINRESKEKIFNSYWENKKLNGYRRQKRVRKS
notes: NanR of Streptococcus pneumoniae (WP_000360349.1) with the substitution D160A; Variant of m1; source: E. coli BL21(DE3), purified
- stoichiometry N [4]: 2

B3: SpNanR^R148A (natural protein)
chain: MDKPDIATIIDSHFEEMTDLEQEIARYFLQAETITDDLSSQQVTQKLHISQAALTRFAKKCGFTGYREFIFQYQHQAENQANQVSKHSPLTKRVLRSYSNMREQTQDLIDEIQLERIAQLIEDAERIYFFGTGSSGLVAREMKLRFMALGVVCEALTDQDGFAWTTSIMDENCLVLGFSLSGSTPSILDSLLDAKEMGAKTVLFTSVPNKNSQTYTETVLVATHSQPSYIQRISAQLPMLFFIDLIYAYFLEINRESKEKIFNSYWENKKLNGYRRQKRVRKS
notes: NanR of Streptococcus pneumoniae (WP_000360349.1) with the substitution R148A; Variant of m1; source: E. coli BL21(DE3), purified
- stoichiometry N [4]: 2

B4: nanE recognition sequence, FAM-labeled (dsDNA)
DNA 1: TCTGAAAGTACTTTTAGA
DNA 2: TCTAAAAGTACTTTCAGA
- binding result (SpNanR R56A): no binding
- binding result (SpNanR T18A): no binding
- binding result (SpNanR R67A): no binding
